According to IntAct's records for PubMed 31515488:

B1: Calcium-binding and coiled-coil domain-containing protein 2 (Homo sapiens), Q13137 (parent)
chain: MEETIKDPPTSAVLLDHCHFSQVIFNSVEKFYIPGGDVTCHYTFTQHFIPRRKDWIGIFRVGWKTTREYYTFMWVTLPIDLNNKSAKQQEVQFKAYYLPKDDEYYQFCYVDEDGVVRGASIPFQFRPENEEDILVVTTQGEVEEIEQHNKELCKENQELKDSCISLQKQNSDMQAELQKKQEELETLQSINKKLELKVKEQKDYWETELLQLKEQNQKMSSENEKMGIRVDQLQAQLSTQEKEMEKLVQGDQDKTEQLEQLKKENDHLFLSLTEQRKDQKKLEQTVEQMKQNETTAMKKQQELMDENFDLSKRLSENEIICNALQRQKERLEGENDLLKRENSRLLSYMGLDFNSLPYQVPTSDEGGARQNPGLAYGNPYSGIQESSSPSPLSIKKCPICKADDICDHTLEQQQMQPLCFNCPICDKIFPATEKQIFEDHVFCHSL
partner: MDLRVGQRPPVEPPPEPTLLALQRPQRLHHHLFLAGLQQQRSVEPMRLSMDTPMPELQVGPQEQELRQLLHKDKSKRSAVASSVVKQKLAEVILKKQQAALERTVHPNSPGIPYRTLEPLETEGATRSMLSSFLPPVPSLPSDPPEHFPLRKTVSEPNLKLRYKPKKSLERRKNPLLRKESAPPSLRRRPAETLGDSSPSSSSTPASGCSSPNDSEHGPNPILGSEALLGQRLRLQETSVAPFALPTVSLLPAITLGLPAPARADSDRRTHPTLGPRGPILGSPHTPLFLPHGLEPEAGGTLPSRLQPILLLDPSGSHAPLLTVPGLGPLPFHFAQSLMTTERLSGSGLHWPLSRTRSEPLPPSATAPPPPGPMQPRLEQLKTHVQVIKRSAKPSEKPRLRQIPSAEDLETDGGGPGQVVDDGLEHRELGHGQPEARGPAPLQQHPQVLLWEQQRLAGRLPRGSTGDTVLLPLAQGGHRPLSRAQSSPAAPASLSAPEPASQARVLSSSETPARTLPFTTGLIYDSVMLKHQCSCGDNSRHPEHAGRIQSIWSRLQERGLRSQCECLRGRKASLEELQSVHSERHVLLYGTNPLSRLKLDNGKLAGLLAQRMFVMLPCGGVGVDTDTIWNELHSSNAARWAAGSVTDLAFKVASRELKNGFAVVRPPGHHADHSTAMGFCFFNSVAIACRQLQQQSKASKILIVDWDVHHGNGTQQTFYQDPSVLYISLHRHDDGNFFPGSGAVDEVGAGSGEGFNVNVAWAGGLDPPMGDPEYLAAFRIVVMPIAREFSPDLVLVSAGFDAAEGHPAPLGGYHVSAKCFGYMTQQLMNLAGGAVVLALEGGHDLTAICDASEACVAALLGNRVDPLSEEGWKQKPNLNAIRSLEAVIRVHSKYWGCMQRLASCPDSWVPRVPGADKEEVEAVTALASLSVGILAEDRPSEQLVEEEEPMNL
B2: Four and a half LIM domains protein 3 (Homo sapiens), Q13643 (parent)
chain: MSESFDCAKCNESLYGRKYIQTDSGPYCVPCYDNTFANTCAECQQLIGHDSRELFYEDRHFHEGCFRCCRCQRSLADEPFTCQDSELLCNDCYCSAFSSQCSACGETVMPGSRKLEYGGQTWHEHCFLCSGCEQPLGSRSFVPDKGAHYCVPCYENKFAPRCARCSKTLTQGGVTYRDQPWHRECLVCTGCQTPLAGQQFTSRDEDPYCVACFGELFAPKCSSCKRPIVGLGGGKYVSFEDRHWHHNCFSCARCSTSLVGQGFVPDGDQVLCQGCSQAGP
partner: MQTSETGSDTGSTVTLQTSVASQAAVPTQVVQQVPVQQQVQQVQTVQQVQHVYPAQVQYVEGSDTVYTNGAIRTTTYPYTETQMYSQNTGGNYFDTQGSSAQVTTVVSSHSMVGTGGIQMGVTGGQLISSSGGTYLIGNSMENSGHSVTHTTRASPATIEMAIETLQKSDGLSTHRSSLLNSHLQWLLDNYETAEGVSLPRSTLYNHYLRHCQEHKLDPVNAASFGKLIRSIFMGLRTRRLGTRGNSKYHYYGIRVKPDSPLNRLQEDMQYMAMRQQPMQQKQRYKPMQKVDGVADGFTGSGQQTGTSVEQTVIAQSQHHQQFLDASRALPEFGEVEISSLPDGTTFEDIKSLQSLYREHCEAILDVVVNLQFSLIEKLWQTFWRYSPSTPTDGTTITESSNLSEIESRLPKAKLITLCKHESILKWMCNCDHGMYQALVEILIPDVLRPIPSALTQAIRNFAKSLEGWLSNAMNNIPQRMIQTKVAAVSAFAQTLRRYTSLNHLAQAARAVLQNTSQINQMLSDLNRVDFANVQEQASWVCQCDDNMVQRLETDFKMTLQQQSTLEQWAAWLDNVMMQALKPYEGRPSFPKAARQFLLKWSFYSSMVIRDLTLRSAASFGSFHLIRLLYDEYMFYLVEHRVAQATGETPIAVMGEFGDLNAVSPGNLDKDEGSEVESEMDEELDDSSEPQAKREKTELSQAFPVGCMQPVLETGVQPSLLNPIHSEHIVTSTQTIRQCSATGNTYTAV
B3: ATP-binding cassette sub-family F member 3 (Homo sapiens), Q9NUQ8 (parent)
chain: MATCAEILRSEFPEIDGQVFDYVTGVLHSGSADFESVDDLVEAVGELLQEVSGDSKDDAGIRAVCQRMYNTLRLAEPQSQGNSQVLLDAPIQLSKITENYDCGTKLPGLLKREQSSTVNAKKLEKAEARLKAKQEKRSEKDTLKTSNPLVLEEASASQAGSRKESRLESSGKNKSYDVRIENFDVSFGDRVLLAGADVNLAWGRRYGLVGRNGLGKTTLLKMLATRSLRVPAHISLLHVEQEVAGDDTPALQSVLESDSVREDLLRRERELTAQIAAGRAEGSEAAELAEIYAKLEEIEADKAPARASVILAGLGFTPKMQQQPTREFSGGWRMRLALARALFARPDLLLLDEPTNMLDVRAILWLENYLQTWPSTILVVSHDRNFLNAIATDIIHLHSQRLDGYRGDFETFIKSKQERLLNQQREYEAQQQYRQHIQVFIDRFRYNANRASQVQSKLKMLEKLPELKPVDKESEVVMKFPDGFEKFSPPILQLDEVDFYYDPKHVIFSRLSVSADLESRICVVGENGAGKSTMLKLLLGDLAPVRGIRHAHRNLKIGYFSQHHVEQLDLNVSAVELLARKFPGRPEEEYRHQLGRYGISGELAMRPLASLSGGQKSRVAFAQMTMPCPNFYILDEPTNHLDMETIEALGRALNNFRGGVILVSHDERFIRLVCRELWVCEGGGVTRVEGGFDQYRALLQEQFRREGFL
partner: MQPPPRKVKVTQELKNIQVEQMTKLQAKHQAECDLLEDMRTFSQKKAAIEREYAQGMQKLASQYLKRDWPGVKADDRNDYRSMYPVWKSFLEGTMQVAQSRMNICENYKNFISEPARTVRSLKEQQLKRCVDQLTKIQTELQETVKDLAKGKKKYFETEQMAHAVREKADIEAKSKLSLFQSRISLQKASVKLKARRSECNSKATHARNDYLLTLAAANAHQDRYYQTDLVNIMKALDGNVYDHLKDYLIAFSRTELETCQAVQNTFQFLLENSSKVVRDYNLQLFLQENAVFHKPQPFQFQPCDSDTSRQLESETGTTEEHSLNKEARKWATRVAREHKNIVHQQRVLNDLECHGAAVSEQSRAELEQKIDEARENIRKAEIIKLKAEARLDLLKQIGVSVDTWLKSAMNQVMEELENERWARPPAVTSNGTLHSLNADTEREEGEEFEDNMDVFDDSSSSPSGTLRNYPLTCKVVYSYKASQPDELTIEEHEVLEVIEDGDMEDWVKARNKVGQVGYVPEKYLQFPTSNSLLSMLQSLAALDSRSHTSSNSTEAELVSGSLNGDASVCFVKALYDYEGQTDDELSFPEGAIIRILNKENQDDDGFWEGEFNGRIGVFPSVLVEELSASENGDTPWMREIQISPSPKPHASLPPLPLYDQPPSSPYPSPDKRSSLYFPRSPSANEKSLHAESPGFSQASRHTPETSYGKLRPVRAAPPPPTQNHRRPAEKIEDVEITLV
B4: Radial spoke head 1 homolog (Homo sapiens), Q8WYR4 (parent)
chain: MSDLGSEELEEEGENDIGEYEGGRNEAGERHGRGRARLPNGDTYEGSYEFGKRHGQGIYKFKNGARYIGEYVRNKKHGQGTFIYPDGSRYEGEWANDLRHGHGVYYYINNDTYTGEWFAHQRHGQGTYLYAETGSKYVGTWVNGQQEGTAELIHLNHRYQGKFLNKNPVGPGKYVFDVGCEQHGEYRLTDMERGEEEEEEELVTVVPKWKATQITELALWTPTLPKKPTSTDGPGQDAPGAESAGEPGEEAQALLEGFEGEMDMRPGDEDADVLREESREYDQEEFRYDMDEGNINSEEEETRQSDLQD
partner: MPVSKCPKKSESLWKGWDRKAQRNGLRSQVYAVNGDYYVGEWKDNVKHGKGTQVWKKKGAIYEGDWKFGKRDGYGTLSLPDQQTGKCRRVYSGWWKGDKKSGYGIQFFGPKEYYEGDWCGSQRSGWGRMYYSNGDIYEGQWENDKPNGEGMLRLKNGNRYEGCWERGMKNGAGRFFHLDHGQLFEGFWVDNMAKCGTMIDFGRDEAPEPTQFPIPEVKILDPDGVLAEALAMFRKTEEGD
B5: Zinc finger protein Aiolos (Homo sapiens), Q9UKT9 (parent)
chain: MEDIQTNAELKSTQEQSVPAESAAVLNDYSLTKSHEMENVDSGEGPANEDEDIGDDSMKVKDEYSERDENVLKSEPMGNAEEPEIPYSYSREYNEYENIKLERHVVSFDSSRPTSGKMNCDVCGLSCISFNVLMVHKRSHTGERPFQCNQCGASFTQKGNLLRHIKLHTGEKPFKCHLCNYACQRRDALTGHLRTHSVEKPYKCEFCGRSYKQRSSLEEHKERCRTFLQSTDPGDTASAEARHIKAEMGSERALVLDRLASNVAKRKSSMPQKFIGEKRHCFDVNYNSSYMYEKESELIQTRMMDQAINNAISYLGAEALRPLVQTPPAPTSEMVPVISSMYPIALTRAEMSNGAPQELEKKSIHLPEKSVPSERGLSPNNSGHDSTDTDSNHEERQNHIYQQNHMVLSRARNGMPLLKEVPRSYELLKPPPICPRDSVKVINKEGEVMDVYRCDHCRVLFLDYVMFTIHMGCHGFRDPFECNMCGYRSHDRYEFSSHIARGEHRALLK
partner: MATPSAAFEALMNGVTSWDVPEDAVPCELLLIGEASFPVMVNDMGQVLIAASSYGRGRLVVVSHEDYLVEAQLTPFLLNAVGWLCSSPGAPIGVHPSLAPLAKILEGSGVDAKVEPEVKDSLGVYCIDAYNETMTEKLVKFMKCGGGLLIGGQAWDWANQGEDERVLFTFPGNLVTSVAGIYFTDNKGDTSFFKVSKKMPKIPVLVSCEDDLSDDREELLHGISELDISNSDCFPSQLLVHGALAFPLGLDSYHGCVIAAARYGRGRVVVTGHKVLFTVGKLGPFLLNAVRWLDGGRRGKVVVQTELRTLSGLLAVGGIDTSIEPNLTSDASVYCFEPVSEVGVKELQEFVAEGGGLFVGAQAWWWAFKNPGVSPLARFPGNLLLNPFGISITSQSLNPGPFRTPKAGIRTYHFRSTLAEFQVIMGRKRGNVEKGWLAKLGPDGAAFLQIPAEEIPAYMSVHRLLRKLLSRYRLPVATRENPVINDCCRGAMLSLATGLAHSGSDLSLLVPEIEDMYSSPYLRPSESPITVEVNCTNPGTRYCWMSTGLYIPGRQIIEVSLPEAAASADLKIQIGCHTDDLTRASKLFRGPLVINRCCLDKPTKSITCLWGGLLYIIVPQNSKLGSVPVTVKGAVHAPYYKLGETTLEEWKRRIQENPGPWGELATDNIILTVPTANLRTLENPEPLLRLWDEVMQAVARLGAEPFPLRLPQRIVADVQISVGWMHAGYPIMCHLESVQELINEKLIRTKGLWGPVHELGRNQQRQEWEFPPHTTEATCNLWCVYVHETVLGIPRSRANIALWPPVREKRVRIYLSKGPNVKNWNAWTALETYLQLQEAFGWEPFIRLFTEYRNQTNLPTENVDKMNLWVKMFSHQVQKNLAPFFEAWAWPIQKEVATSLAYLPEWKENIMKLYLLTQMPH
B6: Proton-coupled zinc antiporter SLC30A2 (Homo sapiens), Q9BRI3 (parent)
chain: MEAKEKQHLLDARPAIRSYTGSLWQEGAGWIPLPRPGLDLQAIELAAQSNHHCHAQKGPDSHCDPKKGKAQRQLYVASAICLLFMIGEVVGGYLAHSLAVMTDAAHLLTDFASMLISLFSLWMSSRPATKTMNFGWQRAEILGALVSVLSIWVVTGVLVYLAVERLISGDYEIDGGTMLITSGCAVAVNIIMGLTLHQSGHGHSHGTTNQQEENPSVRAAFIHVIGDFMQSMGVLVAAYILYFKPEYKYVDPICTFVFSILVLGTTLTILRDVILVLMEGTPKGVDFTAVRDLLLSVEGVEALHSLHIWALTVAQPVLSVHIAIAQNTDAQAVLKTASSRLQGKFHFHTVTIQIEDYSEDMKDCQACQGPSD
partner: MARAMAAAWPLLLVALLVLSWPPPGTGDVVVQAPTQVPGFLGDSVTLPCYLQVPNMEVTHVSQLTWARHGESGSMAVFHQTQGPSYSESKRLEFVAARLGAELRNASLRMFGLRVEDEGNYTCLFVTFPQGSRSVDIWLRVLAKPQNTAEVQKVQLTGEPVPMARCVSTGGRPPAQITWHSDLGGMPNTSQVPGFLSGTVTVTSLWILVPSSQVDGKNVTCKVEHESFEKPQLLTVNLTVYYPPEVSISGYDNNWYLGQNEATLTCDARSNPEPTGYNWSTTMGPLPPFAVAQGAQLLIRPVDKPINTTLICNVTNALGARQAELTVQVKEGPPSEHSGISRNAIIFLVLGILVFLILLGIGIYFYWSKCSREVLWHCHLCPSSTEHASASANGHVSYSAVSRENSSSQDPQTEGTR

Variants of: B1
Conditions: with hdac7_human HDAC7, Q8WUI4

| Variant | effect of a mutation on the interaction |
| --- | --- |
| T273A | with no effect |
| P389A | with no effect |

Variants of: B2
Conditions: with rfx3_human RFX3, P48380

| Variant | effect of a mutation on the interaction |
| --- | --- |
| R226H | with no effect |

Variants of: B3
Conditions: with fcsd2_human FCHSD2, O94868

| Variant | effect of a mutation on the interaction |
| --- | --- |
| R340W | with no effect |
| R510H | with no effect |

Variants of: B4
Conditions: with morn3_human MORN3, Q6PF18

| Variant | effect of a mutation on the interaction |
| --- | --- |
| G144R | with no effect |
| G248R | with no effect |

Variants of: B5
Conditions: with tcaf1_human TCAF1, Q9Y4C2

| Variant | effect of a mutation on the interaction |
| --- | --- |
| A24V | with no effect |
| N119D | with no effect |

Variants of: B6
Conditions: with pvr_human PVR

| Variant | effect of a mutation on the interaction |
| --- | --- |
| T181M | with no effect |
